# Measurements from patent publication EP4792830A2 (Pfizer Inc., dated 2026).
# Read-outs that look alike come from different tables or passages of the source.
# T1: rabTFPI K1K2 (rabbit, limits assumed)
# T1 construct: also called Rabbit TFPI K1K2
# T1 chain: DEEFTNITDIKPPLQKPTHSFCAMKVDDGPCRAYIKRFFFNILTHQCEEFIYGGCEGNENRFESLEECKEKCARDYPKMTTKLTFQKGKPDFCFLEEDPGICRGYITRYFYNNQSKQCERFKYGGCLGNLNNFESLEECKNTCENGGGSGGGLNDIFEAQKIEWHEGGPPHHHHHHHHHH
# What was measured:
# [1] = target: T1, rabTFPI K1K2; test: SPR (summary table)
# [2] = target: T1, rabTFPI K1K2; test: SPR, antibody ligand, TFPI analyte
# [3] = target: T1, rabTFPI K1K2; test: SPR, antibody ligand, TFPI analyte
# [4] = target: T1, rabTFPI K1K2; test: ELISA, TFPI on streptavidin plate
# [5] = target: T2, humTFPI K1K2 (human); test: SPR, antibody ligand, TFPI analyte
# T2 construct: Biotinylated on the AviTag for ELISA; also called Human TFPI alpha K1K2; humTFPI K1K2-aviHis10
# [6] = target: T2, humTFPI K1K2; test: SPR, antibody ligand, TFPI analyte; remark: listed apart in the source
# [7] = target: T1, rabTFPI K1K2; test: ELISA, TFPI on streptavidin plate
binder,measurement,setting,value
"TFPI-106 (antibody, human IgG1, lambda, IgG1-3M) heavy: not shown light: QSVLTQPPSVSGAPGQRVTISCTGSSSNIGAGYDVHWYQQLPGTAPKLLIYGNSNRPSGVPDRFSGSKSGTSASLAITGLQAEDEADYYCQSYDSSLSGSGVFGGGTKLTVLGQPKAAPSVTLFPPSSEELQANKATLVCLISDFYPGAVTVAWKADSSPVKAGVETTTPSKQSNNKYAASSYLSLTPEQWKSHRSYSCQVTHEGSTVEKTVAPTECS",Kd,[1],4.25 nM
same,Kd,[2],4.25 nM
"4D8.b1 (antibody, mouse IgG1, kappa, also called mouse 4d8.b1; TFPI 4D8) heavy: EVLLQQSGPELVKPGASVKIPCKASGYTFTDYNLDWVKQSHGKSLEWIGDINPINGATLYNQKFKGKATLTVDQSSSTAYMELRSLTSEDTAVYYCSIYYGDYDAMDYWGQGASVTVSSAKTTPPSVYPLAPGSAAQTNSMVTLGCLVKGYFPEPVTVTWNSGSLSSGVHTFPAVLQSDLYTLSSSVTVPSSTWPSETVTCNVAHPASSTKVDKKIVPRDCGCKPCICTVPEVSSVFIFPPKPKDVLTITLTPKVTCVVVDISKDDPEVQFSWFVDDVEVHTAQTQPREEQFNSTFRSVSELPIMHQDWLNGKEFKCRVNSAAFPAPIEKTISKTKGRPKAPQVYTIPPPKEQMAKDKVSLTCMITDFFPEDITVEWQWNGQPAENYKNTQPIMDTDGSYFVYSKLNVQKSNWEAGNTFTCSVLHEGLHNHHTEKSLSHSPGK light: DIVMTQSHKFMSTSVGDRVSITCKASQDVHTAVAWYQQKPGQSPRLLIYWASTRHTGVPDRFTGCGSGTDYTLTISSVQAEDLALYYCQQHYTTPYTFGGGTKLEMKADAAPTVSIFPPSSEQLTSGGASVVCFLNNFYPKDINVKWKIDGSERQNGVLNSWTDQDSKDSTYSMSSTLTLTKDEYERHNSYTCEATHKTSTSPIVKSFNRNEC",Kd,[3],0.63 nM
same,koff,[3],0.00126 s⁻¹
same,kon,[3],2.01e+06 M⁻¹ s⁻¹
same,EC50,[4],0.0976 nM
"hz4F36 (antibody, human IgG4 S228P, kappa, V domains shown, also called Novo2021; Anti-TFPI-4F36) VH: EVQLVESGGGLVKPGGSLRLSCAASGFTFSNYAMSWVRQTPEKRLEWVATISRSGSYSYFPDSVQGRFTISRDNAKNSLYLQMNSLRAEDTAVYYCARLGGYDEGDAMDSWGQGTTVTVSS VL: DIVMTQTPLSLSVTPGQPASISCKSSQSLLESDGKTYLNWYLQKPGQSPQLLIYLVSILDSGVPDRFSGSGSGTDFTLKISRVEAEDVGVYYCLQATHFPQTFGGGTKVEIKR",Kd,[1],1.81 nM
same,Kd,[2],1.81 nM
same,koff,[2],0.0076 s⁻¹
same,kon,[2],4.2e+06 M⁻¹ s⁻¹
"2A8-200 (antibody, human IgG1, lambda, V domains shown, also called Anti-TFPI-2A8-200) VH: QVQLVESGGGLVQPGGSLRLSCAASGFTFRSYGMDWVRQAPGKGLEWVSSIRGSRSSTYYADSVKGRFTISRDNSKNTLYLQMNSLRAEDTAVYYCARLYRYWFDYWGQGTLVTVSS VL: DIELTQPPSVSVAPGQTARISCSGDNLRNYYAHWYQQKPGQAPVVVIFYDVNRPSGIPERFSGSNSGNTATLTISGTQAEDEADYYCQSWWDGVPVFGGGTKLTVLG",Kd,[1],0.145 nM
same,koff,[5],0.00381 s⁻¹
same,Kd,[2],0.145 nM
same,koff,[2],0.000277 s⁻¹
same,kon,[2],1.92e+06 M⁻¹ s⁻¹
"TFPI-24 (antibody, human IgG1, lambda, V domains shown, Phage-derived, human IgG1-3M; also called mAb-TFPI-24; clone 24) VH: EVQLVESGGGSVQPGRSLRLSCAVSGLTIDNYAMQWVRQRPGKGLEWVSGISGNSRSIGYADSVKGRLTISRDNAKNSLYLQIDSLRADDTALYYCAIFLHESDYWGQGTLVTVSS VL: QSVLTQPPSVSGTPGQRVTISCSGSTSNIGTMYVHWYQHVPGTAPKLLIYRNNHRPSGVPDRFSGSKSGTSGSLAISGLRSEDEADYYCLAWDDTLRAYVFGTGTKVTVLG",Kd,[6],3.68 nM
same,koff,[6],0.00971 s⁻¹
same,kon,[6],918000 M⁻¹ s⁻¹
"TFPI-118 (antibody, human IgG1, lambda, V domains shown, Germlined variant of TFPI-24: VL of TFPI-113 paired with VH of TFPI-108) VH: EVQLVESGGGLVQPGRSLRLSCAVSGLTIDNYAMQWVRQAPGKGLEWVSGISGNSRSIGYADSVKGRFTISRDNAKNSLYLQMNSLRAEDTALYYCAIFLHESDYWGQGTLVTVSS VL: QSVLTQPPSASGTPGQRVTISCSGSTSNIGTMYVHWYQQLPGTAPKLLIYRNNHRPSGVPDRFSGSKSGTSASLAISGLRSEDEADYYCLAWDDTLRAYVFGTGTKVTVLG",Kd,[1],5.79 nM
same,Kd,[2],5.79 nM
"7A4.D9 (antibody, V domains shown, Mouse hybridoma antibody) VH: EVQLQQSGPELVKPGASVKMSCKASGYTFTSYVMHWVKQKPGQGLEWIGYLNPYNDGTKYNEKFKGKASLISDKSSSTVYMELSSLTSEDSAVYYCATTLLYAMDYWGQGSSVTVSS VL: DIVLTQSPASLAVSLGQRATISCRASKSVSTSGYTYMHWYQQKPGQPPKLLIYLASNLESGVPARFSGSGSGTDFTLNIHPVEEEDAAAYYCQHIRELPFTFGSGTKLEIKA",Kd,[3],3.55 nM
same,koff,[3],0.0188 s⁻¹
same,kon,[3],5.3e+06 M⁻¹ s⁻¹
same,EC50,[4],0.0887 nM
"6B7.c5 (antibody, human IgG1, kappa, V domains shown, Mouse hybridoma antibody) VH: EVLLQQSGPELVKPGSSVKIPCKASGYTFTDYTMDWVKQSHGKSLEWIGDINPSNGGSIYNRKFKGKATLTVDKSSSTAYMELRSLTSEDTAVYYCARMHYNYDGFPYWGQGTLVTVSA VL: DIVMTQSHKFMSTSVGDRVSITCKASQDVITAVAWYQQKPGQSPKLLIYWASTRHTGVPVRFTGSGSGTDYTLTIISVQAEDLALYYCQQHYSTPYTFGGGTKLEIKA",Kd,[3],4.95 nM
same,koff,[3],0.00564 s⁻¹
same,kon,[3],1.14e+06 M⁻¹ s⁻¹
same,EC50,[4],0.129 nM
"4D8-Vk1.0 x VH1.0 (antibody, human IgG1, kappa, V domains shown, Humanized 4D8 variant) VH: EVQLVESGGGLVQPGGSLRLSCAASGYTFTDYNLDWVRQAPGKGLEWVADINPINGATLYNQKFKGRFTISRDNAKNSLYLQMNSLRAEDTAVYYCARYYGDYDAMDYWGQGTLVTVSS VL: DIQMTQSPSSLSASVGDRVTITCKASQDVHTAVAWYQQKPGKAPKLLIYWASTRHTGVPSRFSGSGSGTDFTLTISSLQPEDFATYYCQQHYTTPYTFGQGTKLEIKR",EC50,[7],0.0785 nM
"4D8-Vk1.0 x VH1.3 (antibody, human IgG1, kappa, V domains shown, Humanized 4D8 variant) VH: EVQLVESGGGLVQPGGSLRLSCAASGYTFTDYNLDWVRQAPGKGLEWVADINPINGATLYNQKFKGRATISRDNAKNSLYLQMNSLRAEDTAVYYCARYYGDYDAMDYWGQGTLVTVSS VL: DIQMTQSPSSLSASVGDRVTITCKASQDVHTAVAWYQQKPGKAPKLLIYWASTRHTGVPSRFSGSGSGTDFTLTISSLQPEDFATYYCQQHYTTPYTFGQGTKLEIKR",EC50,[7],0.0556 nM
"4D8-Vk1.0 x VH1.2 (antibody, human IgG1, kappa, V domains shown, Humanized 4D8 variant) VH: EVQLVESGGGLVQPGGSLRLSCAASGYTFTDYNLDWVRQAPGKGLEWVGDINPINGATLYNQKFKGRFTISRDNAKNSLYLQMNSLRAEDTAVYYCARYYGDYDAMDYWGQGTLVTVSS VL: DIQMTQSPSSLSASVGDRVTITCKASQDVHTAVAWYQQKPGKAPKLLIYWASTRHTGVPSRFSGSGSGTDFTLTISSLQPEDFATYYCQQHYTTPYTFGQGTKLEIKR",EC50,[7],0.0422 nM
"4D8-Vk1.1 x VH1.0 (antibody, human IgG1, kappa, V domains shown, Humanized 4D8 variant) VH: EVQLVESGGGLVQPGGSLRLSCAASGYTFTDYNLDWVRQAPGKGLEWVADINPINGATLYNQKFKGRFTISRDNAKNSLYLQMNSLRAEDTAVYYCARYYGDYDAMDYWGQGTLVTVSS VL: DIQMTQSPSSLSASVGDRVTITCKASQDVHTAVAWYQQKPGKAPKLLIYWASTRHTGVPSRFSGSGSGTDYTLTISSLQPEDFATYYCQQHYTTPYTFGQGTKLEIKR",EC50,[7],0.0451 nM
"4D8-Vk1.1 x VH1.1 (antibody, human IgG1, kappa, V domains shown, Humanized 4D8 variant) VH: EVQLVESGGGLVQPGGSLRLSCAASGYTFTDYNLDWVRQAPGKGLEWVGDINPINGATLYNQKFKGRATISVDQAKNSAYLQMNSLRAEDTAVYYCARYYGDYDAMDYWGQGTLVTVSS VL: DIQMTQSPSSLSASVGDRVTITCKASQDVHTAVAWYQQKPGKAPKLLIYWASTRHTGVPSRFSGSGSGTDYTLTISSLQPEDFATYYCQQHYTTPYTFGQGTKLEIKR",EC50,[7],0.0788 nM
"hz4D8 (antibody, human IgG1, kappa, V domains shown, humanized, human IgG1 3M / kappa; also called 4D8-Vk1.1 x VH1.4; 4D8 Vk 1.1 x VH 1.4) VH: EVQLVESGGGLVQPGGSLRLSCAASGYTFTDYNLDWVRQAPGKGLEWVADINPINGATLYNQKFKGRFTISRDQAKNSLYLQMNSLRAEDTAVYYCARYYGDYDAMDYWGQGTLVTVSS VL: DIQMTQSPSSLSASVGDRVTITCKASQDVHTAVAWYQQKPGKAPKLLIYWASTRHTGVPSRFSGSGSGTDYTLTISSLQPEDFATYYCQQHYTTPYTFGQGTKLEIKR",Kd,[1],0.502 nM
same,Kd,[2],0.502 nM
same,koff,[2],0.0029 s⁻¹
same,kon,[2],3.16e+06 M⁻¹ s⁻¹
same,EC50,[7],0.0716 nM
"4D8-Vk1.0 x VH1.4 (antibody, human IgG1, kappa, V domains shown, Humanized 4D8 variant) VH: EVQLVESGGGLVQPGGSLRLSCAASGYTFTDYNLDWVRQAPGKGLEWVADINPINGATLYNQKFKGRFTISRDQAKNSLYLQMNSLRAEDTAVYYCARYYGDYDAMDYWGQGTLVTVSS VL: DIQMTQSPSSLSASVGDRVTITCKASQDVHTAVAWYQQKPGKAPKLLIYWASTRHTGVPSRFSGSGSGTDFTLTISSLQPEDFATYYCQQHYTTPYTFGQGTKLEIKR",EC50,[7],0.0426 nM
"4D8-Vk1.1 x VH1.2 (antibody, human IgG1, kappa, V domains shown, Humanized 4D8 variant) VH: EVQLVESGGGLVQPGGSLRLSCAASGYTFTDYNLDWVRQAPGKGLEWVGDINPINGATLYNQKFKGRFTISRDNAKNSLYLQMNSLRAEDTAVYYCARYYGDYDAMDYWGQGTLVTVSS VL: DIQMTQSPSSLSASVGDRVTITCKASQDVHTAVAWYQQKPGKAPKLLIYWASTRHTGVPSRFSGSGSGTDYTLTISSLQPEDFATYYCQQHYTTPYTFGQGTKLEIKR",EC50,[7],0.0783 nM
"4D8-Vk1.0 x VH1.1 (antibody, human IgG1, kappa, V domains shown, Humanized 4D8 variant) VH: EVQLVESGGGLVQPGGSLRLSCAASGYTFTDYNLDWVRQAPGKGLEWVGDINPINGATLYNQKFKGRATISVDQAKNSAYLQMNSLRAEDTAVYYCARYYGDYDAMDYWGQGTLVTVSS VL: DIQMTQSPSSLSASVGDRVTITCKASQDVHTAVAWYQQKPGKAPKLLIYWASTRHTGVPSRFSGSGSGTDFTLTISSLQPEDFATYYCQQHYTTPYTFGQGTKLEIKR",EC50,[7],0.0705 nM
"4D8-Vk1.1 x VH1.3 (antibody, human IgG1, kappa, V domains shown, Humanized 4D8 variant) VH: EVQLVESGGGLVQPGGSLRLSCAASGYTFTDYNLDWVRQAPGKGLEWVADINPINGATLYNQKFKGRATISRDNAKNSLYLQMNSLRAEDTAVYYCARYYGDYDAMDYWGQGTLVTVSS VL: DIQMTQSPSSLSASVGDRVTITCKASQDVHTAVAWYQQKPGKAPKLLIYWASTRHTGVPSRFSGSGSGTDYTLTISSLQPEDFATYYCQQHYTTPYTFGQGTKLEIKR",EC50,[7],0.0511 nM
